Assay results from article PMC5578693, “The role of the C-terminal D0 domain of flagellin in activation of Toll like receptor 5” (PLoS Pathogens, 2017).

Legend:
[1] = molecular target: soluble hTLR5 ectodomain fused to the Fc region of human IgG1 (human) (UniProt O60602)
[2] = molecular target: T1, soluble hTLR5 ectodomain fused to the Fc region of human IgG1 (human, UniProt O60602 21-639); experiment: co-IP; 10 ug hTLR5-Fc bound to protein A-coupled Dynabeads (control: beads with water only); 20 ug wt or mutant flagellin added, 1 h at room temperature; washed 3 times with 1 x PBS, 0.02% Tween 20, pH 7.5; eluted in 0.1% SDS at 95 C; flagellin detected by Western blot with anti-His antibodies; conditions: both partners purified
T1 construct: human Toll-like receptor 5, ectodomain; UniProtKB O60602; In the functional rows this molecule stands for human TLR5, which was there full length on HEK293 cells (pUNO-hTLR5) or endogenous in A549 cells; also called hTLR5-Fc; source: bought: Invivogen
T1 sequence (O60602 21-639): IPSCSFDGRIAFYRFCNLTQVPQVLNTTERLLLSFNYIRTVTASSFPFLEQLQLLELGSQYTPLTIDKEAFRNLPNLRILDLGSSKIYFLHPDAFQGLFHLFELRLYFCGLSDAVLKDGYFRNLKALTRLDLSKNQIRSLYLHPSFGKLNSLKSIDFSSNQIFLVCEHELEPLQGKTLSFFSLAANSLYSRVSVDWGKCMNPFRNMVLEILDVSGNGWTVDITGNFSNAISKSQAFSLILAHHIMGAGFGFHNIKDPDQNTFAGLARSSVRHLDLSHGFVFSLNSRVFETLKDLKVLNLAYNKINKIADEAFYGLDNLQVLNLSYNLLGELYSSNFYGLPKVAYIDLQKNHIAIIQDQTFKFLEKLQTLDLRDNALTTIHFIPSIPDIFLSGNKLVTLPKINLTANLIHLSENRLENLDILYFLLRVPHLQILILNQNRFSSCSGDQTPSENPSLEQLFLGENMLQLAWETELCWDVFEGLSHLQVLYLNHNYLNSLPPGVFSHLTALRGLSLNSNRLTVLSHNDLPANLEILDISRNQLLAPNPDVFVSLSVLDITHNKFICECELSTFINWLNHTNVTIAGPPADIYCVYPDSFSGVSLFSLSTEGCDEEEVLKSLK

soluble hTLR5 ectodomain fused to the Fc region of human IgG1 (human), sequence (O60602 21-639): as above

dimSFΔD0, two SFΔD0 domains tethered into a single polypeptide chain by a 27 amino acid peptide linker
TLR5 activation: NF-kB reporter in A549 cells (SEAP) and in hTLR5-transfected HEK293 cells (luciferase, 0-1000 ng/ml); lowest active concentration [1]: 50 ng/mL

B1: S. typhimurium flagellin FliC, wild type (natural protein, UniProt P06179 1-495, looked up)
chain: MAQVINTNSLSLLTQNNLNKSQSALGTAIERLSSGLRINSAKDDAAGQAIANRFTANIKGLTQASRNANDGISIAQTTEGALNEINNNLQRVRELAVQSANSTNSQSDLDSIQAEITQRLNEIDRVSGQTQFNGVKVLAQDNTLTIQVGANDGETIDIDLKQINSQTLGLDTLNVQQKYKVSDTAATVTGYADTTIALDNSTFKASATGLGGTDQKIDGDLKFDDTTGKYYAKVTVTGGTGKDGYYEVSVDKTNGEVTLAGGATSPLTGGLPATATEDVKNVQVANADLTEAKAALTAAGVTGTASVVKMSYTDNNGKTIDGGLAVKVGDDYYSATQNKDGSISINTTKYTADDGTSKTALNKLGGADGKTEVVSIGGKTYAASKAEGHNFKAQPDLAEAAATTTENPLQKIDAALAQVDTLRSDLGAVQNRFNSAITNLGNTVNNLTSARSRIEDSDYATEVSNMSRAQILQQAGTSVLAQANQVPQNVLSLLR
notes: flagellin FliC of S. typhimurium (SaTy), UniProt P06179; cloned into pET19b; also called SaTy; wild-type flagellin; source: E. coli BL21 (DE3) pLysS, purified (Ni-NTA); not shown: His10, N-terminal, kept
binding result [2]: binds
